Changes are numbered by the printed parent chain. Names and notes keep the numbering of the source.
T1: recombinant human lymphotoxin-α homotrimer (human LTα3) (human, UniProt P01374 35-205)
T1 construct: Coated on plates in the ELISAs; also called rhLTα; lymphotoxin-α3 trimer
T1 sequence (looked up): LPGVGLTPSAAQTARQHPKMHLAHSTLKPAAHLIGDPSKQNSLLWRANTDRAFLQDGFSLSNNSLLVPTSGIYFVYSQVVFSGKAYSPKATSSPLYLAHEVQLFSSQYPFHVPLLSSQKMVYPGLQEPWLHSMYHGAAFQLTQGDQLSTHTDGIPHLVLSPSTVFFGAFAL

B1: phage-displayed 2C8.v2 Fab, wild-type phagemid clone (Fab, V domains shown)
VH: EVQLVESGGGLVQPGGSLRLSCAASGYTFTSYVIHWVRQAPGKGLEWVGYNNPYNDGTNYNEKFKGRATISSDKSKNTAYLQMNSLRAEDTAVYYCSRPTMLPWFAYWGQGTLVTVSS
VL: DIQMTQSPSSLSASVGDRVTITCRASQAVSSAVAWYQQKPGKAPKLQIYSASHRYTGVPSRFSGSGSGTDFTLTISSLQPEDFATYYCQQHYSTPWTFGQGTKVEIKR
notes: also called wild-type 2C8.v2
B2: phage-displayed 2C8 Fab clone H9 (Fab, V domains shown)
VH: B1 VH
VL: B1 VL with S93Y
B3: phage-displayed 2C8 Fab clone C12 (Fab, V domains shown)
VH: B1 VH
VL: B1 VL with Q90E
B4: phage-displayed 2C8 Fab clone D8 (Fab, V domains shown)
VH: B1 VH
VL: B1 VL with H91F, T94V
B5: phage-displayed 2C8 Fab clone H6 (Fab, V domains shown)
VH: B1 VH
VL: B1 VL with Q90E, H91V
notes: also called 2C8 clone H6
B6: phage-displayed 2C8 Fab clone G12 (Fab, V domains shown)
VH: B1 VH
VL: B1 VL with Q90K, H91T, Y92F
B7: phage-displayed 2C8 Fab clone G2 (Fab, V domains shown)
VH: B1 VH
VL: B1 VL with H91Y
B8: phage-displayed 2C8 Fab clone G7 (Fab, V domains shown)
VH: B1 VH
VL: B1 VL with Q90E, H91N
notes: also called 2C8 clone G7
B9: humanized 2C8.v2 (antibody, IgG1, V domains shown)
VH: B1 VH
VL: B1 VL
notes: also called Version 2
B10: humanized 2C8.v12 (antibody, V domains shown)
VH: B1 VH with A68F
VL: B1 VL with Q47L
notes: Human kappa / IgG1; also called Version 12; copies: 2 + 2
B11: humanized 2C8.v7 (antibody, V domains shown)
VH: B1 VH
VL: B1 VL with Q47L
notes: Human kappa / IgG1; copies: 2 + 2
B12: humanized 3F12.v2 (antibody, IgG1, name in Kabat numbering, V domains shown)
VH: EVQLVESGGGLVQPGGSLRLSCAASGYTFSSYWIEWVRQAPGKGLEWVGEISPGSGSTNYNEEFKGRATFSADNSKNTLYLQMNSLRAEDTAVYYCADGYHGYWGQGTLVTVSS
VL: DIQMTQSPSSLSASVGDRVTITCKSSQSLLYSTNQKNFLAWYQQKPGKAPKLLIYWASTRDSGVPSRFSGSGSGTDFTLTISSLQPEDFATYYCQQYYSYPRTFGQGTKVEIKR
notes: Built back from 3F12.v5; human kappa / IgG1 constant domains; also called I69F
B13: humanized 3F12.v4 (antibody, IgG1, name in Kabat numbering, V domains shown)
VH: B12 VH with F70I, L79A
VL: B12 VL
notes: Built back from 3F12.v5; human kappa / IgG1 constant domains; also called L78A
B14: 3F12 version 13 (3F12.v5 with Y31A, CDR-L1) (antibody, IgG1, V domains shown)
VH: B12 VH with L79A
VL: DIQMTQSPSSLSASVGDRVTITCKSSQSLLASTNQKNFLAWYQQKPGKAPKLLIYWASTRDSGVPSRFSGSGSGTDFTLTISSLQPEDFATYYCQQYYSYPRTFGQGTKVEIK
notes: Alanine-scan variant of 3F12.v5; human kappa / IgG1
B15: 3F12 version 28 (3F12.v5 with Y59A, CDR-H2) (antibody, IgG1, V domains shown)
VH: B12 VH with Y60A, L79A
VL: B14 VL with A31Y
notes: as for B14
B16: 3F12 version 15 (3F12.v5 with N34A, CDR-L1) (antibody, IgG1, V domains shown)
VH: B12 VH with L79A
VL: B14 VL with A31Y, N34A
notes: Alanine-scan variant of 3F12.v5; human kappa / IgG1; also called 3F12 clone 15
B17: 3F12 version 21 (3F12.v5 with S93A, CDR-L3) (antibody, IgG1, V domains shown)
VH: B12 VH with L79A
VL: B14 VL with A31Y, S99A
notes: Alanine-scan variant of 3F12.v5; human kappa / IgG1; also called 3F12 clone 21
B18: 3F12 version 9 (3F12.v5 with Y99A, CDR-H3) (antibody, IgG1, V domains shown)
VH: B12 VH with L79A, Y100A
VL: B14 VL with A31Y
notes: as for B14
B19: 3F12 version 24 (3F12.v5 with G53A, CDR-H2) (antibody, IgG1, V domains shown)
VH: B12 VH with G54A, L79A
VL: B14 VL with A31Y
notes: as for B14
B20: 3F12 version 12 (3F12.v5 with Y102A, CDR-H3) (antibody, IgG1, V domains shown)
VH: B12 VH with L79A, Y103A
VL: B14 VL with A31Y
notes: Alanine-scan variant of 3F12.v5; human kappa / IgG1; also called 3F12 clone 12
B21: 3F12 version 16 (3F12.v5 with K36A, CDR-L1) (antibody, IgG1, V domains shown)
VH: B12 VH with L79A
VL: B14 VL with A31Y, K36A
notes: as for B14
B22: 3F12 version 19 (3F12.v5 with Y91A, CDR-L3) (antibody, IgG1, V domains shown)
VH: B12 VH with L79A
VL: B14 VL with A31Y, Y97A
notes: as for B14
B23: 3F12 version 20 (3F12.v5 with Y92A, CDR-L3) (antibody, IgG1, V domains shown)
VH: B12 VH with L79A
VL: B14 VL with A31Y, Y98A
notes: Alanine-scan variant of 3F12.v5; human kappa / IgG1; also called 3F12 clone 20
B24: 3F12 version 17 (3F12.v5 with F38A, CDR-L1) (antibody, IgG1, V domains shown)
VH: B12 VH with L79A
VL: B14 VL with A31Y, F38A
notes: Alanine-scan variant of 3F12.v5; human kappa / IgG1; also called 3F12 clone 17
B25: 3F12 version 26 (3F12.v5 with S56A, CDR-H2) (antibody, IgG1, V domains shown)
VH: B12 VH with S57A, L79A
VL: B14 VL with A31Y
notes: as for B14
B26: 3F12 version 25 (3F12.v5 with G55A, CDR-H2) (antibody, IgG1, V domains shown)
VH: B12 VH with G56A, L79A
VL: B14 VL with A31Y
notes: as for B14
B27: 3F12 version 22 (3F12.v5 with Y94A, CDR-L3) (antibody, IgG1, V domains shown)
VH: B12 VH with L79A
VL: B14 VL with A31Y, Y100A
notes: as for B14
B28: 3F12 version 23 (3F12.v5 with R96A, CDR-L3) (antibody, IgG1, V domains shown)
VH: B12 VH with L79A
VL: B14 VL with A31Y, R102A
notes: as for B14
B29: 3F12 version 14 of Table 2 (3F12.v5 with T33A, CDR-L1) (antibody, IgG1, V domains shown)
VH: B12 VH with L79A
VL: B14 VL with A31Y, T33A
notes: Alanine-scan variant of 3F12.v5; human kappa / IgG1; also called 3F12 clone 14
B30: 3F12 version 29 (3F12.v5 with N60A, CDR-H2) (antibody, IgG1, V domains shown)
VH: B12 VH with N61A, L79A
VL: B14 VL with A31Y
notes: as for B14
B31: 3F12 version 18 (3F12.v5 with Q89A, CDR-L3) (antibody, IgG1, V domains shown)
VH: B12 VH with L79A
VL: B14 VL with A31Y, Q95A
notes: as for B14
B32: 3F12 version 30 (3F12.v5 with E61A, CDR-H2) (antibody, IgG1, V domains shown)
VH: B12 VH with E62A, L79A
VL: B14 VL with A31Y
notes: as for B14
B33: 3F12 version 27 (3F12.v5 with N58A, CDR-H2) (antibody, IgG1, V domains shown)
VH: B12 VH with N59A, L79A
VL: B14 VL with A31Y
notes: as for B14
B34: 3F12 version 31 (3F12.v5 with E62A, CDR-H2) (antibody, IgG1, V domains shown)
VH: B12 VH with E63A, L79A
VL: B14 VL with A31Y
notes: as for B14

Molecular target: T1, recombinant human lymphotoxin-α …
Test: phage competitive ELISA: rhLTα in solution competes with plate-coated LTα
Experimental: For the first round, phage were captured for 2 hours against 2 μg/ml plate-coated LTα at ambient temperature. The second and third rounds of selection were performed at ambient temperature by capturing phage for 30 minutes with 2 nM biotinylated LTα in solution phase, followed by capture on neutravidin-coated plates. The highest affinity clone was identified using a competitive ELISA. Constant concentrations of phage clones (normalized by solid-phase LTα binding OD) were incubated with increasing concentrations of LTα (0-50 nM) in solution before capture on a plate coated with 2 μg/ml LTα.

Row | Binder | IC50
1 | B1 | 3.14 nM
2 | B2 | 3.8 nM
3 | B3 | 3.41 nM
4 | B4 | 137 nM
5 | B5 | 1.1 nM
6 | B6 | 5.34 nM
7 | B7 | 4.51 nM
8 | B8 | 0.57 nM

Molecular target: T1, recombinant human lymphotoxin-α …
Test: plate ELISA on coated human LTα

Row | Binder | ELISA IC50 ratio
9 | B9 | 1.7 ratio
10 | B10 | 1 ratio
11 | B11 | 1.2 ratio

Molecular target: T1, recombinant human lymphotoxin-α …
Test: plate ELISA on coated LTα

Row | Binder | Relative binding
12 | B12 | > 1000 fold down from the chimera
13 | B13 | > 500 fold down from the chimera

Molecular target: T1, recombinant human lymphotoxin-α …
Test: plate-based ELISA against LTα

Row | Binder | relative binding (EC50 of the variant / EC50 of version 5)
14 | B14 | 3.4 ratio
15 | B15 | 2.73 ratio
16 | B16 | 0.49 ratio
17 | B17 | 0.82 ratio
18 | B18 | 10 ratio
19 | B19 | 34.1 ratio
20 | B20 | 0.81 ratio
21 | B21 | 3.7 ratio
22 | B22 | 2.3 ratio
23 | B23 | 0.71 ratio
24 | B24 | 0.32 ratio
25 | B25 | 1.07 ratio
26 | B26 | 1.2 ratio
27 | B27 | 14.3 ratio
28 | B28 | 18.2 ratio
29 | B29 | 0.72 ratio
30 | B30 | 2.31 ratio
31 | B31 | 4.2 ratio
32 | B32 | 1.78 ratio
33 | B33 | 1.7 ratio
34 | B34 | 1.93 ratio

Molecular target: T1, recombinant human lymphotoxin-α …
Test: BIACORE (rhLTα)

Row | Binder | Kd | kon
35 | B9 | 0.2 nM | 600000 M⁻¹ s⁻¹
36 | B10 | 0.07 nM | –
37 | B11 | 0.4 nM | –

Reference: patent US20130011412A1 (Genentech, published 2013)
